The record followed here is paper PMC2926129 (Regulatory peptides, 2010).

Ends that are not written are not given here.

The test deals with T1, rabbit calcitonin receptor (rabbit, UniProt P79222 23-474).
T1 sequence (looked up): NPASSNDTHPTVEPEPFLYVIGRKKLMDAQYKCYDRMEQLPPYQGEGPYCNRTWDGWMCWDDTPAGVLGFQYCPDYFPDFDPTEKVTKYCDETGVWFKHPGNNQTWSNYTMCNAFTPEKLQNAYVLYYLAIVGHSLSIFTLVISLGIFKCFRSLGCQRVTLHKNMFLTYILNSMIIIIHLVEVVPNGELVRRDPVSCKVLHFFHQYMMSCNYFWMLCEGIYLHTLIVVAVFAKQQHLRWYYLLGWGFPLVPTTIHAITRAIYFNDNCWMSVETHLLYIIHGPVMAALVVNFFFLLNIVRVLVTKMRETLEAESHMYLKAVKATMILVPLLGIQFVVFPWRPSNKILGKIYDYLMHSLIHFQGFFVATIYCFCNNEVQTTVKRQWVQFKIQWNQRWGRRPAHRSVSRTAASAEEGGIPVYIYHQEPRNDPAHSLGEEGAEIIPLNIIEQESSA
The test can be described thus: radioligand binding.

The Ki is the equilibrium dissociation constant of an inhibitor or competing ligand from its target.

For the molecule CGNLSTCMLGTYTQDFNKFHTFPQTAIGVGAP (ligand, UniProt P01258 85-116, looked up, ends and bridges not checked; cysteine pairing not given here) [human calcitonin], the inhibition constant Ki was 0.61 nM.
